US11814447B2, “Peptide ligands for binding to EphA2” (BICYCLERD LIMITED, priority 2018, dated 2023)
Starred links: 1 amine or outer side, 2 acyl side, 3 side chain; linkers in the order of their positions; H or OH if unused. Positions of bridges follow the written chain, without caps; N, C: chain ends. Non-standard residues stand in square brackets, D forms with d. Primed or numbered codes have the meaning given here. No end group written: not given here. TBMB′ = 1,3,5-tris(bromomethyl)benzene, 1,3,5-tris(methylene)benzene core, three thioethers to Cys; 4BenzylPro = 4-benzyl-pyrrolidine-2-carboxylic acid; Dip = N[C@H](C(=O)O)C(c1ccccc1)c1ccccc1; 1Nal = N[C@@H](Cc1cccc2ccccc12)C(=O)O; TBMB = c1c(C[*:1])cc(C[*:3])cc1C[*:2]; Ala(cPr) = N[C@@H](CC1CC1)C(=O)O; hArg = N=C(N)NCCCC[C@H](N)C(=O)O; Gly(cPr) = N[C@H](C(=O)O)C1CC1; Cba = N[C@@H](CC1CCC1)C(=O)O; Tle = CC(C)(C)[C@H](N)C(=O)O; Ac5c = NC1(C(=O)O)CCCC1; Ac4c = NC1(C(=O)O)CCC1; Ac3c = NC1(C(=O)O)CC1; Aib = CC(C)(N)C(=O)O; Sar = CNCC(=O)O

Biological target: T1, Human EphA2 (Ecto) (Human, UniProt P29317 24-537)
T1 construct: extracellular domain
T1 sequence (P29317 24-537): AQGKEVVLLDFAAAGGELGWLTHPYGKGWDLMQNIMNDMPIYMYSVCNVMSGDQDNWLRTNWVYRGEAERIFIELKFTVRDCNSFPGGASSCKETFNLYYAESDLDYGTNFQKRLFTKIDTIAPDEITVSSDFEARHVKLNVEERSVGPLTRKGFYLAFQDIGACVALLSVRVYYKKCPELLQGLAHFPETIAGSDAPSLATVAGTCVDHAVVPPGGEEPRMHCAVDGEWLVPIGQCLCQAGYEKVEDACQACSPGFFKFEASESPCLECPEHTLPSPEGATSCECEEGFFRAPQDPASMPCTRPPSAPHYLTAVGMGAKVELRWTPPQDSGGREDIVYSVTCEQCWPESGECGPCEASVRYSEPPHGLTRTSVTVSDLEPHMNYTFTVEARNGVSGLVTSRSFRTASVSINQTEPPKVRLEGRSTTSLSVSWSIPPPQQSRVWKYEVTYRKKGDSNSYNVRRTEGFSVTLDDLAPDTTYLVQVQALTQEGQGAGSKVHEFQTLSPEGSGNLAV
Assay: FP competition, tracer Compound 18
Protocol: Peptides without a fluorescent tag were tested in competition with a peptide with a fluorescent tag and a known Kd (Table 2). Peptides were diluted to an appropriate concentration in assay buffer as described in the direct binding assay with a maximum of 5% DMSO, then serially diluted 1 in 2. […] Measurements were conducted as for the direct binding assay, however the gain was determined prior to the first measurement. Data analysis was in Systat Sigmaplot version 12.0 where the mP values were fit to a user defined cubic equation to generate a Ki value: […]

B1: Bicycle Compound 186 (peptide)
peptide: [dD]VTCP[1Nal]G[Aib]F[1Nal]CP[Tle]NR[Aib]GC
modifications: linker 4-11-18 via TBMB′
B1 was tested, and the Ki was 1.34 nM.

B2: Bicycle Compound 187 (peptide)
peptide: AHDVPCP[1Nal]GPFWCPVNRPGCA
modifications: linker 6-13-20 via TBMB′
Work on B2 yielded a Ki of 0.32 nM.

B3: Bicycle Compound 191 (peptide)
peptide: AHDVPCP[1Nal]G[Aib]FWCP[Tle]N[hArg]PGC
modifications: linker 6-13-20 via TBMB
In the case of B3, the Ki is reported as 3.1 nM.

B4: Bicycle Compound 162 (peptide)
peptide: Ac-[Sar][Sar]A[dD][Gly(cPr)]TCPWGPFWCPVNRPGC
modifications: linker 7-14-21 via TBMB′
B4 was tested, and the Ki was 2.55 nM.

B5: Bicycle Compound 178 (peptide)
peptide: Ac-[Sar][Sar]A[dD]VTCP[1Nal]G[Aib]FWCPVNR[Aib]GC
modifications: linker 7-14-21 via TBMB′
For B5, the Ki was 2.4 nM.

B6: Bicycle Compound 266 (peptide)
peptide: Ac-[Sar][Sar]H[dD]VPCP[1Nal]G[Aib]FWCPVNR[Aib]GC
modifications: linker 7-14-21 via TBMB
Work on B6 yielded a Ki of 1.6 nM.

B7: Bicycle Compound 168 (peptide)
peptide: Ac-[Sar][Sar]A[dD]VTC[4BenzylPro]WGPFWCPVNRPGC
modifications: linker 7-14-21 via TBMB′
B7 showed a Ki of 5.03 nM.

B8: Bicycle Compound 150 (peptide)
peptide: ADVHCP[1Nal]GPFWCPVNRPGCA
modifications: linker 5-12-19 via TBMB
In the case of B8, the Ki is reported as 0.12 nM.

B9: Bicycle Compound 161 (peptide)
peptide: Ac-[Sar][Sar]A[dD][Ala(cPr)]TCPWGPFWCPVNRPGC
modifications: linker 7-14-21 via TBMB′
For B9, the Ki was 4.44 nM.

B10: Bicycle Compound 179 (peptide)
peptide: Ac-[Sar][Sar]A[dD]VTCPWG[Aib]F[1Nal]CPVNR[Aib]GC
modifications: linker 7-14-21 via TBMB′
For B10, the Ki was 2.94 nM.

B11: Bicycle Compound 268 (peptide)
peptide: Ac-[Sar][Sar]H[dD]VPCPWG[Aib]F[1Nal]CPVNR[Aib]GC
modifications: linker 7-14-21 via TBMB
With B11 the Ki was 1.24 nM.

B12: Bicycle Compound 171 (peptide)
peptide: Ac-[Sar][Sar]A[dD]VTCPWGP[hArg]WCPVNRPGC
modifications: linker 7-14-21 via TBMB′
For B12, the Ki was 4.88 nM.

B13: Bicycle Compound 170 (peptide)
peptide: Ac-[Sar][Sar]A[dD]VTCP[1Nal]GPFWCPVNRPGC
modifications: linker 7-14-21 via TBMB′
In the case of B13, the Ki is reported as 0.6 nM.

B14: Bicycle Compound 193 (peptide)
peptide: Ac-[Sar][Sar]AHDVPCPWGPFWCPVNRPGC
modifications: linker 8-15-22 via TBMB
Work on B14 yielded a Ki of 0.59 nM.

B15: Bicycle Compound 219 (peptide)
peptide: [Sar][Sar]AHDV[dA]CPWGPFWCPVNRPGC
modifications: linker 8-15-22 via TBMB
For B15, the Ki was 15 nM.

B16: Bicycle Compound 214 (peptide)
peptide: [Sar][Sar]AHDAPCPWGPFWCPVNRPGC
modifications: linker 8-15-22 via TBMB
For B16, the Ki was 22.5 nM.

B17: Bicycle Compound 199 (peptide)
peptide: [Sar][Sar]A[dA]DVPCPWGPFWCPVNRPGC
modifications: linker 8-15-22 via TBMB
In the case of B17, the Ki is reported as 3.35 nM.

B18: Bicycle Compound 205 (peptide)
peptide: [Sar][Sar]AHAVPCPWGPFWCPVNRPGC
modifications: linker 8-15-22 via TBMB
B18 was tested, and the Ki was 1.8 nM.

B19: Bicycle Compound 195 (peptide)
peptide: Ac-[Sar][Sar]AADVPCPWGPFWCPVNRPGC
modifications: linker 8-15-22 via TBMB
Work on B19 yielded a Ki of 1.01 nM.

B20: Bicycle Compound 200 (peptide)
peptide: Ac-[Sar][Sar]A[dD]DVPCPWGPFWCPVNRPGC
modifications: linker 8-15-22 via TBMB
B20 was tested, and the Ki was 4.1 nM.

B21: Bicycle Compound 206 (peptide)
peptide: [Sar][Sar]AH[dA]VPCPWGPFWCPVNRPGC
modifications: linker 8-15-22 via TBMB
For B21, the Ki was 8.3 nM.

B22: Bicycle Compound 207 (peptide)
peptide: [Sar][Sar]AHEVPCPWGPFWCPVNRPGC
modifications: linker 8-15-22 via TBMB
For B22, the Ki was 1.3 nM.

B23: Bicycle Compound 218 (peptide)
peptide: [Sar][Sar]AHDVACPWGPFWCPVNRPGC
modifications: linker 8-15-22 via TBMB
Work on B23 yielded a Ki of 1.27 nM.

B24: Bicycle Compound 208 (peptide)
peptide: [Sar][Sar]AH[dE]VPCPWGPFWCPVNRPGC
modifications: linker 8-15-22 via TBMB
In the case of B24, the Ki is reported as 2 nM.

B25: Bicycle Compound 215 (peptide)
peptide: [Sar][Sar]AHD[dA]PCPWGPFWCPVNRPGC
modifications: linker 8-15-22 via TBMB
B25 was tested, and the Ki was 26 nM.

B26: Bicycle Compound 181 (peptide)
peptide: Ac-[Sar][Sar]A[dD]VTCP[1Nal]G[Aib]F[1Nal]CPVNR[Aib]GC
modifications: linker 7-14-21 via TBMB′
B26 was tested, and the Ki was 1.37 nM.

B27: Bicycle Compound 261 (peptide)
peptide: Ac-[Sar][Sar]H[dD]VPCP[1Nal]G[Aib]F[1Nal]CPVNR[Aib]GC
modifications: linker 7-14-21 via TBMB
With B27 the Ki was 0.63 nM.

B28: Bicycle Compound 165 (peptide)
peptide: Ac-[Sar][Sar]A[dD]VTC[Ac3c]WGPFWCPVNRPGC
modifications: linker 7-14-21 via TBMB′
For B28, the Ki was 185 nM.

B29: Bicycle Compound 160 (peptide)
peptide: Ac-[Sar][Sar]A[dD][Cba]TCPWGPFWCPVNRPGC
modifications: linker 7-14-21 via TBMB′
Binder B29 has a Ki of 2.6 nM.

B30: Bicycle Compound 189 (peptide)
peptide: AHDVPCPWGPF[1Nal]CPVNRPGC
modifications: linker 6-13-20 via TBMB
B30 gave a Ki of 1.3 nM.

B31: Bicycle Compound 192 (peptide)
peptide: AHDVPCP[1Nal]G[Aib]FWCP[Tle]NR[Aib]GC
modifications: linker 6-13-20 via TBMB
With B31 the Ki was 1.75 nM.

B32: Bicycle Compound 149 (peptide)
peptide: ADVHCP[Dip]GPFWCPVNRPGCA
modifications: linker 5-12-19 via TBMB
For B32, the Ki was 52.8 nM.

B33: Bicycle Compound 164 (peptide)
peptide: Ac-[Sar][Sar]AD[Tle]TCPWGPFWCPVNRPGC
modifications: linker 7-14-21 via TBMB′
B33 was tested, and the Ki was 2.25 nM.

B34: Bicycle Compound 167 (peptide)
peptide: Ac-[Sar][Sar]A[dD]VTC[Ac5c]WGPFWCPVNRPGC
modifications: linker 7-14-21 via TBMB′
B34 gave a Ki of 138 nM.

B35: Bicycle Compound 153 (peptide)
peptide: ADVHCPWG[Aib]FWCPVNRPGCA
modifications: linker 5-12-19 via TBMB′
B35 was tested, and the Ki was 0.51 nM.

B36: Bicycle Compound 188 (peptide)
peptide: AHDVPCP[1Nal]GPFWCPVNRPGC
modifications: linker 6-13-20 via TBMB
B36 was tested, and the Ki was 1.45 nM.

B37: Bicycle Compound 190 (peptide)
peptide: AHDVPCP[1Nal]GPFWCP[Tle]NRPGC
modifications: linker 6-13-20 via TBMB
In the case of B37, the Ki is reported as 0.7 nM.

B38: Bicycle Compound 185 (peptide)
peptide: [dD]VTCPWGPFWCPVNRPGC
modifications: linker 4-11-18 via TBMB
B38 gave a Ki of 2.17 nM.

B39: Bicycle Compound 177 (peptide)
peptide: Ac-[Sar][Sar]A[dD]VTCPWGPFWCPVNR[Aib][dD]C
modifications: linker 7-14-21 via TBMB′
B39 gave a Ki of 4.43 nM.

B40: Bicycle Compound 166 (peptide)
peptide: Ac-[Sar][Sar]A[dD]VTC[Ac4c]WGPFWCPVNRPGC
modifications: linker 7-14-21 via TBMB′
B40 was tested, and the Ki was 76.7 nM.

B41: Bicycle Compound 157 (peptide)
peptide: Ac-[Sar][Sar]ADVTCPWGPFWCPVNRPGC
modifications: linker 7-14-21 via TBMB′
With B41 the Ki was 0.91 nM.

B42: Bicycle Compound 148 (peptide)
peptide: Ac-[Sar][Sar]ADVHCPWGPFWCPVNRPGC
modifications: linker 7-14-21 via TBMB
In the case of B42, the Ki is reported as 1.2 nM.

B43: Bicycle Compound 224 (peptide)
peptide: Ac-[Sar][Sar][dH]DVPCPWGPFWCPVNRPGC
modifications: linker 7-14-21 via TBMB
In the case of B43, the Ki is reported as 1.09 nM.

B44: Bicycle Compound 159 (peptide)
peptide: Ac-[Sar][Sar]A[dD][dD]TCPWGPFWCPVNRPGC
modifications: linker 7-14-21 via TBMB′
B44 was tested, and the Ki was 2.85 nM.

B45: Bicycle Compound 174 (peptide)
peptide: Ac-[Sar][Sar]A[dD]VTCPWGPFWCPLNRPGC
modifications: linker 7-14-21 via TBMB′
With B45 the Ki was 9.1 nM.

B46: Bicycle Compound 172 (peptide)
peptide: Ac-[Sar][Sar]A[dD]VTCPWGPNWCPVNRPGC
modifications: linker 7-14-21 via TBMB′
B46 showed a Ki of 3.96 nM.

B47: Bicycle Compound 180 (peptide)
peptide: Ac-[Sar][Sar]A[dD]VTCPWG[Aib]FWCP[Tle]NR[Aib]GC
modifications: linker 7-14-21 via TBMB′
B47 was tested, and the Ki was 3.83 nM.

B48: Bicycle Compound 270 (peptide)
peptide: Ac-[Sar][Sar]H[dD]VPCPWG[Aib]FWCP[Tle]NR[Aib]GC
modifications: linker 7-14-21 via TBMB
For B48, the Ki was 1.52 nM.
